Six molecules from US6903185 can be followed below.

In series [1] the target is T1, Zif268 (three-finger peptide) (UniProt P08046 P08046:333-421). Nature of the series: cell_activity; 293 cells.
Series [2] addresses T1, Zif268 (three-finger peptide). Nature of the series: EMSA; room temp.
Series [3] shares this target. The series can be described thus: EMSA; pH 7.0, 100 mM NaCl, 5 mM MgCl2, Zn, room temp.

B1: N//Z site in luciferase reporter promoter (dsDNA)
DNA 1: AAGGGTTCAGTGCGTGGGCG
DNA 2: CGCCCACGCACTGAACCCTT
Molecule B1 registered an activity in series [1] of 15 fold repression.

B2: N/Z site in luciferase reporter promoter (dsDNA)
DNA 1: AAGGGTTCAGGCGTGGGCG
DNA 2: CGCCCACGCCTGAACCCTT
Regarding B2, the activity in series [1] amounted to 8.9 fold repression.

B3: N//Z site (dsDNA)
DNA 1: TCTGCAAGGGTTCAGTGCGTGGGCGGTAAG
DNA 2: CTTACCGCCCACGCACTGAACCCTTGCAGA
On to B3, for which, in series [2], the Kd came to 0.014 nM.

B4: NZ site (dsDNA)
DNA 1: TCTGCAAGGGTTCAGCGTGGGCGGTAAG
DNA 2: CTTACCGCCCACGCTGAACCCTTGCAGA
In turn, B4 registered a Kd in series [3] of 0.012 nM.

B5: N/Z site (dsDNA)
DNA 1: TCTGCAAGGGTTCAGGCGTGGGCGGTAAG
DNA 2: CTTACCGCCCACGCCTGAACCCTTGCAGA
Regarding B5, the affinity in series [2], expressed as Kd, was 0.014 nM. This counts as picomolar.

B6: Z site in luciferase reporter promoter (dsDNA)
DNA 1: GCGTGGGCG
DNA 2: CGCCCACGC
For B6, in series [1], the activity stood at 13 fold repression.
